Biological target: chemokine receptor 4 (CXCR4), GFP‐tagged, on MDAMB231 X4 cells (human) (UniProt P61073)
Assay: flow cytometry on cells

Sequence of UniProt P61073 (P61073 whole entry): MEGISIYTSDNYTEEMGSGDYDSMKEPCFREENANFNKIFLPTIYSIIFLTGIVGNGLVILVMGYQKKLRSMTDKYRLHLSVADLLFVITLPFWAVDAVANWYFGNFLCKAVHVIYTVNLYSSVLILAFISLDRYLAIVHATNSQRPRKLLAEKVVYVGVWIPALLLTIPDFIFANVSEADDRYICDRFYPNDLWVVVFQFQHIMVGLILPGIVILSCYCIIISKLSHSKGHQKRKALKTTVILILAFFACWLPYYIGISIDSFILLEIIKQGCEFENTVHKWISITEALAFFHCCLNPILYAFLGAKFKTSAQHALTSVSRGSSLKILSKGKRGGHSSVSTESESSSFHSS

| Substance | Kd [nM] |
| --- | --- |
| Cy5‐S‐S‐Cy3‐AcTZ14011 (peptide) | > 500 |
| N3‐Cy5‐AcTZ14011 (peptide) | 222 |

— PMC6120557
